Assay results from the DeepSol protein solubility set.

test: soluble on expression in E. coli; label from the status in PepcDB or PDB records

Sequence | soluble on expression in E. coli
MSFDGFFLHHLTNELKENLLYGRIQKVNQPFERELVLTIRNHRKNYKLLLSAHPVFGRVQITQADFQNPQVPNTFTMIMRKYLQGAVIEQLEQIDNDRIIEIKVSNKNEIGDAIQATLIIEIMGKHSNIILVDRAENKIIESIKHVGFSQNSYRTILPGSTYIEPPKTAAVNPFTITDVPLFEILQTQELTVKSLQQHFQGLGRDTAKELAELLTTDKLKRFREFFARPTQANLTTASFAPVLFSDSHATFETLSDMLDHFYQDKAERDRINQQASDLIHRVQTELDKNRNKLSKQEAELLATENAELFRQKGELLTTYLSLVPNNQDSVILDNYYTGEKIEIALDKALTPNQNAQRYFKKYQKLKEAVKHLSGLIADTKQSITYFESVDYNLSQASIDDIEDIREELYQAGFLKSRQRDKRHKRKKPEQYLASDGTTILMVGRNNLQNEELTFKMAKKGELWFHAKDIPGSHVIIKDNLDPSDEVKTDAAELAAYYSKARLSNLVQVDMIEAKKLHKPSGAKPGFVTYTGQKTLRVTPDQAKILSMKLS | not soluble
MALNLKQRLEQKFEEEIRFFKGMVSQPKKVGAIVPTSSITAKKMASVINPHSGLPVLELGPGTGVITKAILARGIKPESLTAIEYSTDFYNQLLRSYPGVNFVNGDAFDLDATLGEHKGQMFDSVISAVPMLNFPMAARIKLLDELLKRVPHGRPVVQISYGPISPIVAQPHLYHIRHFDFIVRNIPPAQLWTYTRALEHHHHHH | not soluble
MTFLKEYVIVSGASGFIGKHLLEALKKSGISVVAITRDVIKNNSNALANVRWCSWDNIELLVEELSIDSALIGIIHLATEYGHKTSSLINIEDANVIKPLKLLDLAIKYRADIFLNTDSFFAKKDFNYQHMRPYIITKRHFDEIGHYYANMHDISFVNMRLEHVYGPGDGENKFIPYIIDCLNKKQSCVKCTTGEQIRDFIFVDDVVNAYLTILENRKEVPSYTEYQVGTGAGVSLKDFLVYLQNTMMPGSSSIFEFGAIEQRDNEIMFSVANNKNLKAMGWKPNFDYKKGIEELLKRL | not soluble
MGSDKIHHHHHHMRNILEIVKFWFYDYDVTATEIKANVIKIHCNNKSYILKEKGSIKQLLVEINVLEQLEEKGVKAQKLVKTSNSEKYVVYKERYYCLYEYVVGSVLEIKDPENLKNLGSLIGEEIAKLHQALNSVNSNNELVKRELYKLVYEWALPNLEKNEHVDQDVVRTMNQIHSDFKKTITSLRKQIIHRDMHLSNVIFKDNEFQGFIDFELLERNVRVFDLCYCCTSILSELHSDEELRGKWQHIISKIFEGYNKQSILTREELQAIWYVMLSIQVIFITYFVQLPDLLKLNEEMFFWIFANKETIEELIERSVQI | not soluble
MRRGGSMGPPSGDPYQSRPSPGGYYYNRSTPGGQPAPSPSHSQQSASSHHPRGVPMSQPIARRSDYRTGSEQMTPRSDHRGPSMGYGNGGSVDQRVDDVTPSYYVEHLATFAVGRQFGLTFPADGIRKLKQMEKNSAIWAQPLILRFRHNAVTVEDDNGELVEQFPLELIEQPTAHVSNDSRETYNNVLLFVVREDRKRMSTPTEMHIFQCIRVSATDVAEDLKNYVQGQFRRVRNGRRTAAPTHLQAQQQQMPFYPPDDASISSETSEMFERDVNTLNRCFDDIERFVARIQSAALAQREIEQQNHRYRTANRRDKKNQQPPDPNGILFMRAQLPLESEFVDILKKFKLSFNLLAKLKNHIHEPNAPELLHFLFTPLAVILEACHWGLGRNVAPTVASPLLSLEARELMQNCLTSHESDIWMSLGEAWRTPPEDWTKPLPPPYRPIFNDGFAPYGVADRAMATPNQIHRGHSAPPEHFRQPPPRERNMVDTLEFDRLTLERERLEFEKAKIMERESRLRHEEKQIEDEKRRMHAEKDLITKETTQPVPPPAAVVTHQPITKRYDPPISISPPPQRNNYSHVKVTVDSDTSPRQQAFIDDIVAKGGKLAVVTYDRGGQNTKELTVHKGEYLEVIFDERNWWECKNMHQRVGYVPHTILSMVPFEQQQYAQQYNVMSSQHNVIQINDGVGKMEVFISKTCNFILITTCNLFCSTTKTAVPDIYRAFVMNDETRQMSGTPCENSRSFLSSNTLSSSPENAPEIPLLENLKFNHNKLYLFHILSPNHHNNSSSTGGYNNGHHQGPGMLPEDAPSYVKERQAQNVYRPPPPPLVSDAGVQVEIRREHVAPPPPPVVIPPPPPPVRTPTMEELLRMQQQQQQKQRKPPVEEPVYQPQPAQRAGLEIWRRNQNPQLIQEVTETVGQHSGDILRPAMQRATRVAINEKSSPEDVTRWLQEKGFSPRVIDLLDGQDGANLFSLSKLHLQQACGRDEGGYLYSQLLVQKKRSGFRTHTGDELKAILNHRRTHVELSNEAAADEPVFTINPIL | not soluble
MSKPKYNRVVLKLSGEALAGEQGFGINPAVIKSVAEQVKEIAELDVEVAVVVGGGNIWRGKIGSEMGMDRAGADYMGMLATVMNSLALQDSLENIGIQTRVQTSIEMRQVAEPYIRRKAVRHLEKKRVVIFAAGTGNPYFSTDTTAALRAAEIEADVILMAKNNVDGVYNADPSIDPTATKYETLTYLDVLKEGLGVMDSTASSLCMDNDIPLIVFSVMEKGNIKRAVLGENIGTVVRGKLEHHHHHH | not soluble
MTVIIKSMETPEEIEGKSFVHWQTWREAYDDLLPAEFQETMTLERCRLFSQKYPENTLIAMDGVKIVGFISYGNCRDETIQAGEIIALYVLKDYYGKGIAQKLVKAALTDLNHFSEIFLWVLKDNKRAIAFYQKMGFTFDGQEKILELGKPIKEKRMVFYSK | not soluble
MSQDNSEELIKVEKVEAFFYPIHGIPTMVLYLEDGREFKMFQIPPEIVIALNRLQEKRDYEELLRGDKRENIYDVLAFSSEIKDQLSKIINRVIINDVNEEYGVYIATVEFKFDGVIIEKQLIPSHAVFLAIVSNRPIYVKKNLVDEQEKQERKSGEDV | soluble
MGSSLSNLNDGTNGLAMGPGLGDIPESCVACVFMYLTPPEICNLAGLNRSFRGAASSDSVWEKKLPENYQDLLDLLPPERYHSLSKKDIFAVLSRPIPFDDDNKEVWIDRVTGRVCMAISARGMSITGIEDRRYWNWIPTEESRFHVVAYLQQIWWFEVDGTVRFHLPPGVYSLSFRIHLGRFTKRLGRRVCHFELTHGWDLKPVRFSLSTSDGQEASCEYYLDDVERNEALGKHKRGYWIEYRVGEFIVNGSEPSTEIQWSMKQIDCTHSKGGLCVDSVFINPIGDVKEHKRKAVLKEA | soluble
MSDGKIIHDPVHGSMKIPEELIKLVDTPEIQRLRYIRQLGLANLVYPGANHSRFEHSLGVWYLAKKLSSELDIPRDEALLVQISALLHDIGHGPFSHTFERVYKERLKIGDHMEISRKIIEGKIDIVENGGEIPDIISDLGYSPKEVGELICGVHKKKYLSMIINGDIDVDQLDYLARDAHYTGVAHGIIDLERLLNVMKIHDNELVVDEKGLEAVEGMLVARSLMYSRVYFHRTVKIAEAMLIKGVEFALDSGELFDFWKMTDDRLIVELEDIGGFPSEIIQKIRRRELYKPAVIVGPQDLTGDERRIIASLYKNTKKIRELENELADRVGASEGEVIIELSVPELIISEPRLKQIEISILLGDGKKEPLTKVTPLASAIKRRQTPRWILIIATPPNYVEKVKSVWRKVIF | not soluble
MCVSSAVCVLSRLSLERFSNFSANFVDNFLLVARFARGETLKNGIVLEISKICPKLYISPVPKLFDCSTDNLLFIYILFASKVRMKEMSTPTGLPALNGDVLSAINDMIGRVIIINTTDKKRYSGVLGAVSQDFDFGMQCVVEITKENENNLLRTESECRDKMVFHYSDIVDFAYVTQEIKKQHAVSKFVTDRQYHGDTPIEGEELQEWNGGEEDGLGGSIEDDVVVAGGQTAARRSNNHNNGTGWSVNDMFAANEKMNVVSTFKEDLTQYTTVEVVGTDEDRARAERLAREIESNSSSKFMANLENDDDERDLDKITRQEDFENGNGRKRNNNSFNQQQQQRRNPNIAPNGQPVNRRAEGLRGDRRNSGSSSANNSRYGAPAAAQQNYSQNQQQQQGQKGYRRQNEENDWQMAKGKGQNQGHDHSFRQQQKQMLDPRPNNNVKPADDKAQSATTATAAAGGSRVTDLKNWGNEFSIATAPKDQAPAVPAGNSGSAWNRGPPSSLVAKGSSNESTPPPTTNGEEAETKKEEAPSTSVDVAAAPVQNVQNDAEKHQEDDNVSVTSENDSVITSKSSSFKFNINAPEFKPRVAPATPTATTPVQNEYHPQQQPHPAMMAPQQGPPAPGMGMVPPHMGGPQNQGQPPMMMWQQTGQQQQGGGGYPQNHQFPIQHVPMQGVPGQMYGPGAATPVTVAQQPNQQHQVPTSAAGGQNHQLRDGEYREKQPLYMPYGPPQMVPVTSQQFYHSQYQGQMQQAAPYQMKMMPQQAPQGAYQQRYQQPQVYMMPPQGQQQQPRYQGPPPPQQQQQQQPQQQQFSGEQSRPQSHPNSQPTTPGPRGELPKMSGAPQNGNMQAESSSNASHSGSTSSQSGQRSGSPPGAVPPPPPPQQQHQQQQHPPHHAPPHVGAPPPQMMQQQQQHIQQYMQVFYPMIMPQQMPMQQNQHPQQSLMGERSDQGFPTSGYFDYRTMPNYQQQQQQQQQQMHRQNSLPQQFQGNQGVNPSGQQSGPPPPPPPSQQGTPRDQQHSQSPP | not soluble
MIELAELTKTAGGLVIDQFTQKRERPDSRTMIGSGKLEQMRWAIEVGEIDTVIFNDRLSPRQNVNLEEALGVKVIDRMQLILDIFAMRARSHEGMLQVEEAQLNYLLPRLVGQGIMLSRQGGGIGSKGPGETKLETDRRYIRTRIENIDKALKKVEKTRENIRQKRSKSGIFRIGLIGYTNAGKSSIMNALVGLDKEQYEQNELFATLDATTKAVKLVEDFTVSLTDTVGFIQNLPTELIKAFKSTLEESANVDLLIHVVDASNPHHEIHEQTVLKIMEDLKLTNIPVLNVYNKMDIAPSDFLPTLSPSLQLSIKSESGVQWLKTAILEKLHELFDAFELELPYEKAYQLPELRKSALVQSVVEGEKGYLIKGLIAPELSWKLPNNLEHHHHHH | not soluble
ESRLDRILESGVLRVATTGDYKPFSYRTEEGGYAGFDVDMAQRLAESLGAKLVVVPTSWPNLMRDFADDRFDIAMSGISINLERQRQAYFSIPYLRDGKTPITLCSEEARFQTLEQIDQPGVTAIVNPGGTNEKFARANLKKARILVHPDNVTIFQQIVDGKADLMMTDAIEARLQSRLHPELCAVHPQQPFDFAEKAYLLPRDEAFKRYVDQWLHIAEQSGLLRQ | not soluble
MGSDKIHHHHHHMRRNQVAIVGAAETTKLGVIPDMSQIQLHADAALNAIADAGLKLSDIDGIATAVETPQQIAHYLGITPTWVDGTSVGGCSFMLHVRHAAAAIEAGLCKTVLITHAESGKSMIGKLPRSIPADSLQGQFEAPYGIYGPPSQFPIPVLRFMKTHGITHEQIASVAVVQREWAAKNPRAMMKDPITVADVLNSRMIAYPFRLLQCCLVTDGGGALIMTSADRAKDFPHKPVYVLGTGESVETPMVSQMETFNSSRAFKVAGPTAFREAGISHSDVDHLMIYDAFAHLPLFGLGDLGFMPYEETGKFIADGNTRPGGKLPLNTNGGGLSYMHSGMYGMYALQESVRQMRGIAPAQVPNAKISVCHGVGGMFAASGTIIFTNEK | not soluble
MSLARTPNGGAIACSDAAALGKDELFWGALFRGLNRGGSFLQLQIRQIIVTAIEDGRLPLGMKMPSSRDLATVLKVSRNTVVIAYEQLVDQNFLVSRQRSGYFVAGLPKKFATEAPGLAEVTSRGDEHWVDRFAVRPSAHRNIVKPLDWQTHPYPFIFGQFDPSLFPTNDWRESARAALSVPEINNWARDLIDGDDPALIEQLQLQVLPRRGIHARADEIMMTIGAQHALYLIATLFINGQTKVGIEEPGYPDARNIFRMLTPNVVPLSVDSEGVVPDAMFQSCALAYVTSSHQCPTAVTMPLPRRIELLKAAATGDVVVVEDDYEGELMPESATLPPLKSIDRASNVLYVGSLSKALAPGLRLGYVVAPAPVIRELRALRRLMLRHPPLNNQRVAALFIGLGHYRAHLAQVGRVLLERAKLLDQLLPKHLPSCSFSRGPGSTNFWVTCPTSIDATALAEAALEQGVVIEPGAVFSMDETASRHCFRLGFSSIRTDRIEVGIQRLGEVIAQHLKAEGHHHHHH | soluble
